For this assay, the target named is T1, septin-7 (commercially purified, LSBio) (UniProt Q16181 1-437, labelled with RED-tris-NTA 2nd generation dye (Monolith His-Tag labeling kit)).
T1 sequence (looked up): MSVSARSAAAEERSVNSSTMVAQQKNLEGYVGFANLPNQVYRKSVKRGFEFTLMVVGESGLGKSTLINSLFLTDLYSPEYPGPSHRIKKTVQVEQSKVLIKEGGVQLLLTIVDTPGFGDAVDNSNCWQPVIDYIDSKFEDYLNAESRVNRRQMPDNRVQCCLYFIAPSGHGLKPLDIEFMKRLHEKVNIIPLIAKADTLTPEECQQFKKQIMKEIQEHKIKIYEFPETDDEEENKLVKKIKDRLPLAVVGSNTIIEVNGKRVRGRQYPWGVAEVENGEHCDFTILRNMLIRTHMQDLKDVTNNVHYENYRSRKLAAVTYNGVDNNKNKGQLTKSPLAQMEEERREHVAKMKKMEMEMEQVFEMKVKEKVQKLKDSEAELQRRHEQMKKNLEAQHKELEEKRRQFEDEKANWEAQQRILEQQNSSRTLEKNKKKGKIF
As to the kind of experiment: MST.

B1: SOD1 trimer, F20L-H46Q (FH) trimer-stabilising mutant (enzyme)
chain: not shown
As to B1, binding was characterised by a dissociation constant (Kd) of 6.84 µM.
